Laboratory results taken from publication PMC6527014.

Key:
[1] = target: recombinant SCM (Streptococcus canis M protein), mature wild type (Streptococcus canis (strain G361)); test: SPR
[2] = target: SCM on the surface of S. canis strain G361 (Streptococcus canis (endogenous in strain G361)); test: radioligand binding; inhibition: S. canis G361 with iodinated full-length SCM after pre-incubation with non-iodinated SCM, N-225 or C-226 (5 µg in the text, 1 µM in the legend)
[3] = target: SCM on the surface of S. canis strain G361 (Streptococcus canis (endogenous in strain G361)); test: radioligand binding; iodinated protein (chloramine T) incubated with whole bacteria; percentage binding of totally used iodinated protein

SCM fragment N-225
Kd ([1]; domain or fragment): 58.5 nM

SCM fragment N-225 (domain or fragment)
percent of iodinated SCM bound to G361 with the unlabelled competitor [2]: 6.8%

recombinant SCM (Streptococcus canis M protein), mature wild type
Kd ([1]; natural protein): 4120 nM

recombinant SCM (Streptococcus canis M protein), mature wild type (natural protein)
percent of the iodinated protein bound [3]: 24.1%
percent of iodinated SCM bound to G361 with the unlabelled competitor [2]: 4.4%
